Like-named read-outs stand apart in the source and are kept apart here. No end group written: not given here.
Columns and labels:
[1] = biological target: soluble I-A^g7 (I-Aα–Fos / I-Aβ–Jun heterodimer) (mouse (NOD) | not stated); experiment: peptide dissociation assay
[2] = biological target: soluble I-A^g7 (I-Aα–Fos / I-Aβ–Jun heterodimer) (mouse (NOD) | not stated); experiment: antibody-capture peptide binding assay with europium-streptavidin
[3] = biological target: soluble I-A^g7 (I-Aα–Fos / I-Aβ–Jun heterodimer) (mouse (NOD) | not stated); experiment: as above; remark: listed apart in the source
[4] = biological target: soluble I-A^g7 (I-Aα–Fos / I-Aβ–Jun heterodimer) (mouse (NOD) | not stated); experiment: peptide dissociation assay; remark: listed apart in the source
I-A^g7 [5] = format: binding, NOD mice; conditions: pH 5, competitor 8 nM–25 μM vs biotinylated transferrin peptide (1 μM)
I-A^g7 [6] = format: binding, NOD mice; conditions: biotinylated peptide, pH 5.0, 37°C

Row | Molecule | IC50 [2] [µM] | IC50 [3] [µM] | also measured
1 | Murine CLIP (86–100) peptide, biotinylated | – | – | dissociation time (t1/2) [1]: 1 h
2 | Murine CLIP (86–100) peptide, unlabeled | 50 | > 125 | –
3 | Murine CLIP analogue with V at position 98 (P9), unlabeled (from UniProt P04441 86-100) (peptide) | 50 | – | –
4 | Murine serum albumin (560–574) peptide, biotinylated | – | – | dissociation time (t1/2) [1]: > 72 h; dissociation time (t1/2) [4]: > 72 h
5 | Murine transferrin (55–68) peptide, biotinylated | – | – | dissociation time (t1/2) [1]: 45 h; dissociation time (t1/2) [4]: > 72 h
6 | EEVDMTPADALDDFD [HSV-2 VP16 (430–444)] | – | – | Binding to I-A^g7 in competition assay (in words) (I-A^g7 [5]): competed for binding of the biotinylated transferrin peptide at high peptide concentrations; Binding to I-A^g7 in direct binding assay (in words), pH 5.0 (I-A^g7 [6]): little binding
7 | PVSQMRMATPLLHRP [Murine CLIP analogue with H at position 98 (P9), unlabeled] | 4 | > 125 | –
8 | PVSQMRMATPLLPRP [Murine CLIP analogue with P at position 98 (P9), unlabeled] | > 125 | > 125 | –
9 | PVSQMRMATPLLARP [Murine CLIP analogue with A at position 98 (P9), unlabeled] | 2 | 15 | –
10 | PVSQMRMATPLLDRP (also: biotinylated, position not given here) [Murine CLIP 98D analogue, biotinylated] | – | – | dissociation time (t1/2) [1]: 23 h; dissociation time (t1/2) [4]: 70 h
11 | PVSQMRMATPLLWRP [Murine CLIP analogue with W at position 98 (P9), unlabeled] | 80 | > 125 | –
12 | PVSQMRMATPLLGRP [Murine CLIP analogue with G at position 98 (P9), unlabeled] | 10 | > 125 | –
13 | PVSQMRMATPLLNRP [Murine CLIP analogue with N at position 98 (P9), unlabeled] | 80 | 125 | –
14 | PVSQMRMATPLLLRP [Murine CLIP analogue with L at position 98 (P9), unlabeled] | 40 | > 125 | –
15 | PVSQMRMATPLLCRP [Murine CLIP analogue with C at position 98 (P9), unlabeled] | 40 | – | –
16 | PVSQMRMATPLLYRP [Murine CLIP analogue with Y at position 98 (P9), unlabeled] | > 125 | 60 | –
17 | PVSQMRMATPLLIRP [Murine CLIP analogue with I at position 98 (P9), unlabeled] | > 125 | > 125 | –
18 | GCALLRCIPALDSLTPANED (cysteine pairing not given here; also: biotinylated, position not given here) [Human HSP60 (441–460) peptide, biotinylated] | – | – | dissociation time (t1/2) [1]: 14 h; dissociation time (t1/2) [4]: 25 h
19 | PVSQMRMATPLLKRP [Murine CLIP analogue with K at position 98 (P9), unlabeled] | > 125 | > 125 | –
20 | PVSQMRMATPLLTRP [Murine CLIP analogue with T at position 98 (P9), unlabeled] | > 125 | 40 | –
21 | PVSQMRMATPLLFRP [Murine CLIP analogue with F at position 98 (P9), unlabeled] | 80 | 50 | –
22 | PVSQMRMATPLLRRP [Murine CLIP analogue with R at position 98 (P9), unlabeled] | > 125 | > 125 | –
23 | PVSQMRMATPLLQRP [Murine CLIP analogue with Q at position 98 (P9), unlabeled] | 25 | > 125 | –
24 | PVSQMRMATPLLSRP [Murine CLIP analogue with S at position 98 (P9), unlabeled] | 40 | – | –
